Consider 94 variants from the supplement of paper PMC10567573.

The chains are these.
B1: GOLPH3 (parent)
chain: FAPLLDEQYDLATKRVRQLLDLDP
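Further: lentivirally expressed fusions sorted by FACS into six bins by GFP to DsRed ratio, PSI derived from sequencing read proportions per bin multiplied by bin number.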

In this data set the parent is B1. The data set can be described thus: protein stability index of a GFP-peptide fusion (GPS, HEK-293T) (PSI 1-6); higher = more stable. Particulars: c terminus: a fixed tail appended.
For the variant FAPLLDEQYDLATKRVRQLLQLDP [D21Q], the protein stability index was found to be 2.1. As for FAPLLDEQYDLATKRVRQLLPLDP [D21P], the figure is 1.48. As to FAPLLDEQYDLATKRVRQLLNLDP [D21N], the protein stability index was found to be 2.12. Turning to FAPLLDEQYLLATKRVRQLLDLDP [D10L], the protein stability index worked out at 1.72. Turning to FAPLLDEQYMLATKRVRQLLDLDP [D10M], the protein stability index was 2.24. As for FAPLLDEQYPLATKRVRQLLDLDP [D10P], the figure is 2.4. As for FAPLLDEQYILATKRVRQLLDLDP [D10I], the figure is 1.88; as for FAPLLDEQYNLATKRVRQLLDLDP [D10N], 1.59. The figure for FAPLLDEQYHLATKRVRQLLDLDP [D10H] is 1.58. On to FAPLLDEQYWLATKRVRQLLDLDP [D10W], for which the protein stability index amounted to 3.11. Consider FAPLLDEWYDLATKRVRQLLDLDP [Q8W], for which the protein stability index turned out to be 1.32. As for FAPLLDEYYDLATKRVRQLLDLDP [Q8Y], the figure is 2.33. FAPLLDENYDLATKRVRQLLDLDP [Q8N]: the protein stability index is 1.84. As for FAPLLDEKYDLATKRVRQLLDLDP [Q8K], the figure is 1.75; as for FAPLLDECYDLATKRVRQLLDLDP [Q8C], 2.1. As for FAPLLDEFYDLATKRVRQLLDLDP [Q8F], the protein stability index turned out to be 1.5. As for FAPLLDEEYDLATKRVRQLLDLDP [Q8E], the figure is 2.64; as for FAPLLDEMYDLATKRVRQLLDLDP [Q8M], 1.88. As for FAPLLDEGYDLATKRVRQLLDLDP [Q8G], the figure is 2.08; as for FAPLLDEQYDLATKRVRNLLDLDP [Q18N], 2.2. As for FAPLLDEQYDLATKRVRMLLDLDP [Q18M], the figure is 2.02; as for FAPLLDEQYDLATKRVRFLLDLDP [Q18F], 2.67; as for FAPLLDEQYDLATKRVRILLDLDP [Q18I], 2.34.

Consider FAPLLDEQYDLATKRVRRLLDLDP [Q18R], for which the protein stability index came out at 1.44. The figure for FAPLLDEQYDLATKRVRCLLDLDP [Q18C] is 1.38; for FAPLLDEQYDLATKRVRELLDLDP [Q18E] it is 2.06; for FAPLLDEQYDLATKRVRWLLDLDP [Q18W] it is 2.36. Take FAPLLDEQYDLATKRVRSLLDLDP [Q18S]: the protein stability index was determined as 2.11.

As to EAPLLDEQYDLATKRVRQLLDLDP [F1E], the protein stability index stood at 4.59. The figure for TAPLLDEQYDLATKRVRQLLDLDP [F1T] is 4.11; for LAPLLDEQYDLATKRVRQLLDLDP [F1L] it is 3.67; for KAPLLDEQYDLATKRVRQLLDLDP [F1K] it is 3.61. The figure for FAPLLDEQYDWATKRVRQLLDLDP [L11W] is 2.82; for FAPLLDEQYDYATKRVRQLLDLDP [L11Y] it is 2.51. On to FAPLLDEQYDHATKRVRQLLDLDP [L11H], for which the protein stability index was determined as 2.73. As for FAPLLDEQYDMATKRVRQLLDLDP [L11M], the figure is 3.03.

On to FAPLLDEQYDDATKRVRQLLDLDP [L11D], for which the protein stability index was found to be 3.09. The figure for FAPLLDEQYDSATKRVRQLLDLDP [L11S] is 2.27; for FAPLLDEQYDPATKRVRQLLDLDP [L11P] it is 2.91. Take FAPLLDEQYDKATKRVRQLLDLDP [L11K]: the protein stability index turned out to be 2.56. As for FAPLLDEQYDIATKRVRQLLDLDP [L11I], the figure is 2.36.

For FAPLLDEQYDLATKRVRQLCDLDP [L20C], the protein stability index came to 2.27. As for FAPLLDEQYDLATKRVRQLGDLDP [L20G], the figure is 2.42. As for FAPLLDEQYDLATKRVRQLTDLDP [L20T], the figure is 2.27; as for FAPLLDEQYDLATKRVRQLVDLDP [L20V], 1.94. The figure for FAPLLDEQYDLATKRVRQLRDLDP [L20R] is 1.91; for FAPLLDEQYDLATKRVRQLQDLDP [L20Q] it is 2.24; for FAPLLDEQYDLAEKRVRQLLDLDP [T13E] it is 2.56. In the case of FAPLLDEQYDLAPKRVRQLLDLDP [T13P], the protein stability index turned out to be 2.22. The figure for FAPLLDEQYDLAQKRVRQLLDLDP [T13Q] is 1.84; for FAPLLDEQYDLARKRVRQLLDLDP [T13R] it is 1.57; for FAPLLDEQYDLADKRVRQLLDLDP [T13D] it is 2.92.

With FAPLLDEQYDLAMKRVRQLLDLDP [T13M], the protein stability index stood at 1.89. As for FAPQLDEQYDLATKRVRQLLDLDP [L4Q], the figure is 2.12; as for FAPILDEQYDLATKRVRQLLDLDP [L4I], 2.33; as for FAPYLDEQYDLATKRVRQLLDLDP [L4Y], 2.65. Take FAPCLDEQYDLATKRVRQLLDLDP [L4C]: the protein stability index was found to be 1.67.

On to FAPTLDEQYDLATKRVRQLLDLDP [L4T], for which the protein stability index came out at 1.72. As for FAPKLDEQYDLATKRVRQLLDLDP [L4K], the figure is 2.34; as for FAPVLDEQYDLATKRVRQLLDLDP [L4V], 3.17; as for FAPDLDEQYDLATKRVRQLLDLDP [L4D], 3.39.

Regarding FAPELDEQYDLATKRVRQLLDLDP [L4E], the protein stability index was 2.79.

Turning to FAPPLDEQYDLATKRVRQLLDLDP [L4P], the protein stability index turned out to be 2.35. As for FAPLLDEQYDLATHRVRQLLDLDP [K14H], the figure is 1.99. FAPLLDEQYDLATDRVRQLLDLDP [K14D]: the protein stability index was determined as 2.94.

As to FAPLLDEQYDLATWRVRQLLDLDP [K14W], the protein stability index turned out to be 2.28.

As to FAPLLDEQYDLATERVRQLLDLDP [K14E], the protein stability index worked out at 2.14. As for FAPLLDEQYDLATTRVRQLLDLDP [K14T], the figure is 2.11; as for FAPLLDEQYDLATYRVRQLLDLDP [K14Y], 1.97; as for FAPLLDEQYDLATFRVRQLLDLDP [K14F], 1.17. As for FAPLLDEQYDLATRRVRQLLDLDP [K14R], the figure is 2.24; as for FAPLLDEQYDLATARVRQLLDLDP [K14A], 1.76; as for FAPLLDEQYDLATKRVYQLLDLDP [R17Y], 1.74. On to FAPLLDEQYDLATKRVHQLLDLDP [R17H], for which the protein stability index was found to be 1.87. As for FAPLLDEQYDLATKRVQQLLDLDP [R17Q], the protein stability index stood at 2.77.

With FAPLLDEQYDLATKRVTQLLDLDP [R17T], the protein stability index was 2.11. The figure for FAPLLDEQYDLATKRVSQLLDLDP [R17S] is 2.61; for FAPLLDEQYDLATKRVCQLLDLDP [R17C] it is 2.14; for FAPLLDEQYDLATKRVRQKLDLDP [L19K] it is 2.14.

Regarding FAPLLDEQYDLATKRVRQHLDLDP [L19H], the protein stability index is 2.09.

For FAPLLDEQYDLATKRVRQCLDLDP [L19C], the protein stability index worked out at 1.49.

For FAPLLDEQYDLATKRVRQYLDLDP [L19Y], the protein stability index stood at 1.85.

In the case of FAPLLDEQYDLATKRVRQRLDLDP [L19R], the protein stability index came out at 1.65. As for FAPLLDEQYDLATKRVRQMLDLDP [L19M], the figure is 1.78; as for FAPLLDEQYDLATKRVRQTLDLDP [L19T], 2.61; as for FAPLLDEQYDLATKRVRQGLDLDP [L19G], 2.26. As for FAPLLDEQYDLKTKRVRQLLDLDP [A12K], the figure is 1.99.

Take FAPLLDEQYDLMTKRVRQLLDLDP [A12M]: the protein stability index came out at 2.8. For the variant FAPLLDEQYDLRTKRVRQLLDLDP [A12R], the protein stability index was 2.04. With FAPLLDEQYDLFTKRVRQLLDLDP [A12F], the protein stability index came to 1.74.

With FAPLLDEQYDLTTKRVRQLLDLDP [A12T], the protein stability index is 2.3.

Consider FAPLLDEQYDLCTKRVRQLLDLDP [A12C], for which the protein stability index amounted to 1.57. The figure for FAPLLDEQYDLVTKRVRQLLDLDP [A12V] is 1.88; for FAPLLDEQYDLPTKRVRQLLDLDP [A12P] it is 2.04.
